{"source": "patent US7250290B1", "about": "“Arsenic methyltransferase sequence variants” (priority 2003, dated 2007)", "molecules": {"B1": {"name": "WT: recombinant wild type (reference) human ASMT polypeptide, SEQ ID NO:5, expressed in COS-1 cells (protein, listed as Homo Sapiens)", "chain": "MAALRDAEIQKDVQTYYGQVLKRSADLQTNGCVTTARPVPKHIREALQNVHEEVALRYYGCGLVIPEHLENCWILDLGSGSGRDCYVLSQLVGEKGHVTGIDMTKGQVEVAEKYLDYHMEKYGFQASNVTFIHGYIEKLGEAGIKNESHDIVVSNCVINLVPDKQQVLQEAYRVLKHGGELYFSDVYTSLELPEEIRTHKVLWGECLGGALYWKELAVLAQKIGFCPPRLVTANLITIQNKELERVIGDCRFVSATFRLFKHSKTGPTKRCQVIYNGGITGHEKELMFDANFTFKEGEIVEVDEETAAILKNSRFAQDFLIRPIGEKLPTSGGCSALELKDIITDPFKLAEESDSMKSRCVPDAAGGCCGTKKSC"}}, "key": {"[1]": {"test_system": "recombinant ASMT allozymes", "test": "Substrate kinetic studies, apparent Km of recombinant ASMT allozymes", "format": "biochemical, human", "protocol": "Estimating Apparent Km Values: To estimate apparent Km values of ASMT for the sodium arsenite and SAM, a series of sodium arsenite and SAM concentrations were tested with the recombinant allozymes. Blanks for each substrate concentration were included by assaying COS-1 cell cytosol after transfection with empty p91023(b) vector. […] Apparent Km values were calculated using the method of Wilkinson with a computer program written by Cleland. Wilkinson supra; and Cleland supra.\nAlterations in amino acid sequence can alter enzyme substrate affinity and/or catalytic efficiency. […] A series of sodium arsenite and SAM concentrations were used to estimate apparent Km values for recombinant wild type ASMT and for the three variant allozymes."}, "[2]": {"test_system": "recombinant ASMT allozymes", "test": "ASMT enzyme activity of recombinant allozymes (methylation of sodium arsenite with 14C-SAM)", "format": "biochemical, human", "conditions": "COS-1 cell homogenate, 2.5 mM sodium arsenite, 10 μM 14C-SAM, corrected for transfection efficiency, mean ± SEM", "excerpt": "Recombinant ASMT Expression Constructs and Allozyme Expression: ASMT cDNA sequences for the three non-synonymous cSNPs observed during the resequencing experiments were created using the QuickChange Site-Directed Mutagenesis kit (Stratagene, La Jolla, Calif.), with the wild type ASMT cDNA open reading frame (ORF) in the pUni/V5-His-TOPO (pUni) vector (Invitrogen) as template. Specifically, the full-length wild type ORF was amplified using human brain Marathon-Ready cDNA (Clontech) as template. The resultant ASMT cDNA was subcloned into pUni, a vector that is only 2.3 kilobases in length and thus is well suited for performing “circular PCR” during site-directed mutagenesis. Site-directed mutagenesis was performed using internal primers that contained the variant nucleotide sequences. […]\nASMT Enzyme Activity: ASMT activity was measured using the methods of Zakharayan et al. (Chem. Res. Toxicol. 8(8):1029-1038 (1995)). […] The protein concentration of each recombinant protein preparation was determined by the dye-binding method of Bradford (Anal. Biochem. 72:248-254 (1976)) with bovine serum albumin as a standard. “Blank” samples included the same quantity of COS-1 15,000 x g supernatant from cells that were transfected with “empty” p91023(b) expression vector to correct for endogenous activity. […]"}}, "note": "Read-outs that look alike come from different tables or passages of the source.", "data": [{"molecule": "B1", "values": [{"measurement": "Km", "setting": "[1]; substrate SAM, read-out: SAM Km", "result": "12 ± 6.9", "unit": "µM"}, {"measurement": "Km", "setting": "[1]; substrate sodium arsenite, read-out: Sodium Arsenite Km", "result": 4.6, "unit": "µM"}, {"measurement": "Enzyme Activity (% WT)", "setting": "[2]", "result": 100, "unit": "% WT"}]}]}
